According to patent publication US20240325562A1, “INTERNALIZING BINDING MOLECULES” (LinXis B.V., priority 2020, published 2024):

Assays:
[1] = molecular target: T1, rPDGFRB (SCC-rPDGFRB cells) (Rattus norvegicus, UniProt Q05030); experiment: Binding to cells transgenically expressing rat PDGFRB
T1 construct: SCC VII cells transgenically expressing full-length rat PDGFRB (SCC-rPDGFRB); expressed in transfected cells; host or cells: murine SCC VII cells
Description: (§1) High affine binders to hPDGFRB-ECD or rPDGFRB-ECD were subsequently assessed for binding to SCC VII cells transfected with hPDGFRB and rPDGFRB, respectively.
(§2) Based on their high affinity and binding to non-overlapping hPDGRB epitopes, various biparatopic constructs were prepared based on VHHs SP02P, SP12P SP14P, SP26P and SP28P. The constructs were produced as described in example 7.1. and subjected to binding assay.
(§3) As Shown in FIG. 15C), the binding affinity of this construct for both hPDGFRB and rPDGFRB are below 5 nM. […] These observations make SP02P (or similar VHH) and SP26P (or similar VHH) particularly promising for use in the present invention.

hPDGFRB-ECD = hPDGFRB-ECD (Homo sapiens, UniProt P09619); experiment: Binding assay on hPDGFRB-ECD; settings: biparatopic constructs, FIG. 15A
Sequence of hPDGFRB-ECD (P09619 33-532 limits assumed): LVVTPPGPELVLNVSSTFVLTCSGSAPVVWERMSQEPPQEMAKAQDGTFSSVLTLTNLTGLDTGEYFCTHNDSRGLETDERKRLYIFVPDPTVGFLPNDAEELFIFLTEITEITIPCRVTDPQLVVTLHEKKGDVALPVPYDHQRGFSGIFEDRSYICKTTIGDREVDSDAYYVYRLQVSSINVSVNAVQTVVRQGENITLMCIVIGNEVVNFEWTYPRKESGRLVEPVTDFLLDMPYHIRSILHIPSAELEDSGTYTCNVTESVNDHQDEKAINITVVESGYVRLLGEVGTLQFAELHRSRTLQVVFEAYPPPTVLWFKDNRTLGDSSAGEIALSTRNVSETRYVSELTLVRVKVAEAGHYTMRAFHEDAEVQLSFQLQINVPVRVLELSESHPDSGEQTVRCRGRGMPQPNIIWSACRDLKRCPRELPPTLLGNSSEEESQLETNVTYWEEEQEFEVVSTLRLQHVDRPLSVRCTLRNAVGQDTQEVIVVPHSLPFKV
Description: The 15 unique hIGF2R-binding VHH (Example 2.1, FIG. 2) were produced and purified as described in examples 3 and 4. The apparent affinities were determined through binding assay on immobilized hIGF2R-ECD. Briefly, three-fold serial dilution series, starting from 1 μM, of each VHH were plated onto hIGF2R-ECD coated plates. VHH were allowed to bind for two hours after which plates were washed. Then, bound VHH was detected using a VHH-specific IgG antibody, followed by an IRD800CW-conjugated IgG-specific antibody. Plates were read out by fluorimetry.
The 18 unique hPDGFRB binders from libraries 1 and 2, and the 11 unique rPDGFRB binders from libraries 3 and 4 (Example 2.2, FIGS. 5 and 6) were produced and purified as described in examples 3 and 4. Then, the apparent affinities were determined with binding assays on hPDGFRB-ECD and rPDGFRB-ECD, respectively, the setup described in example 5.1. Results are summarized in FIGS. 5 and 6 for the hPDGFRB and rPDGFRB VHHs, respectively.
as §2
As Shown in FIG. 15C), the binding affinity of this construct for both hPDGFRB and rPDGFRB are below 5 nM. […]

[2] = molecular target: T2, hPDGFRB (SCC-hPDGFRB cells) (Homo sapiens, UniProt P09619); experiment: Binding to cells transgenically expressing human PDGFRB
T2 construct: SCC VII cells transgenically expressing full-length human PDGFRB (SCC-hPDGFRB); expressed in transfected cells; host or cells: murine SCC VII cells
T2 sequence (P09619 33-1106): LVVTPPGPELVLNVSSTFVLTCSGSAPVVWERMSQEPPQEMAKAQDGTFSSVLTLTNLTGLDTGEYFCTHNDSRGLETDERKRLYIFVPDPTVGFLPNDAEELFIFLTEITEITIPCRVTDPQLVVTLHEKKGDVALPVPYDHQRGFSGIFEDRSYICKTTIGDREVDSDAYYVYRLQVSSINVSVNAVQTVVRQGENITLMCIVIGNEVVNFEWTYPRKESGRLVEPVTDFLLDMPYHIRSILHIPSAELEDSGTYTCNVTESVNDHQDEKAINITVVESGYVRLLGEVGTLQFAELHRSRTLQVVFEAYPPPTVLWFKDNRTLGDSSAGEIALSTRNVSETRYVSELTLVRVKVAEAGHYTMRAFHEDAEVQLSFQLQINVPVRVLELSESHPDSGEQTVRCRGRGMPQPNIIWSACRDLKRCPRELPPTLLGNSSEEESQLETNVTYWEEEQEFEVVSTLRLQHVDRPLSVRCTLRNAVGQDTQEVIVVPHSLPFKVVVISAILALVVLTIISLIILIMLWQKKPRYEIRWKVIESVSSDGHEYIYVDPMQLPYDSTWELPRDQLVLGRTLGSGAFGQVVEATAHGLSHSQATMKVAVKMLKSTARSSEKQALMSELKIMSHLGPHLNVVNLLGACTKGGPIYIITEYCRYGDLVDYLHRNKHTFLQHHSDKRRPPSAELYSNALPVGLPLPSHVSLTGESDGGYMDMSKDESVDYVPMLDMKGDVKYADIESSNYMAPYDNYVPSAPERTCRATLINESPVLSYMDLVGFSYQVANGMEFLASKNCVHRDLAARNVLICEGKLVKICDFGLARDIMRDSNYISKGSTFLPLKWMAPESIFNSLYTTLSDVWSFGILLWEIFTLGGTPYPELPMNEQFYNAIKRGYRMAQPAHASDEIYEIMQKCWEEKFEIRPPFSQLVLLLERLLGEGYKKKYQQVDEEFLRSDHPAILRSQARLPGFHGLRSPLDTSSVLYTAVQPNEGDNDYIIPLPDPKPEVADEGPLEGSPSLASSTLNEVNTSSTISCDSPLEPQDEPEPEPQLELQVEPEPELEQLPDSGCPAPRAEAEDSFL
Description: as §1, §2, §3

[3] = In vivo pharmacokinetics in rats, serum ELISA on hIGF2R-ECD; design: species or system Sprague-Dawley rats
Description: (§4) The in vivo pharmacokinetic properties of 13F11-13E8-ABD (F11E8-ABD; with ABD) and 13F11-13E8 (F11E8; without ABD) were compared in healthy Sprague-Dawley rats. In brief, rats were dosed intravenously with approximately 3 mg/kg body weight and blood samples were taken at different time points and the concentration of the VHH constructs were determined using an ELISA on immobilized hIGF2R-ECD. […] To further confirm the functionality of the ABD, biodistribution of F11E8-ABD and F11E8 were assessed by means of Positron Emission Tomography (PET). In brief, the constructs were radio-labelled with the positron emitter ^89Zr-desferral according to Verel et al (J Nucl Med. 2003; 44:1271-1281), and administered intravenously to rats after which biodistribution was assessed on subsequent time points by whole-body PET.

[4] = Biodistribution by whole-body PET of 89Zr-labelled constructs; format: in vivo; settings: 89Zr-desferral labelled, i.v., rats
Description: as §4

[5] = test system: primary activated rat hepatic stellate cells (HSCs); experiment: Binding to primary activated rat hepatic stellate cells; format: cell-based; settings: Alexa Fluor 488 conjugate; HSCs from BDL rat, 6 days in culture
Source text: The cross-reactivity of F11-E8-ABD was further evaluated in binding experiments to primary activated rat hepatic stellate cells (HSCs). For this, the construct was conjugated to Alexa Fluor 488 according to the methods described in example 10.2. Activated HSCs were obtained from a perfused liver of a cirrhotic bile duct ligated (BDL) rat through density gradient centrifugation. Cells were kept in culture for 6 days to allow complete activation. […] Simultaneously, binding of the VHH construct to the activated cells was evident, further confirming species cross-reactivity of the construct.

[6] = test system: mock transfected NIH 3T3 2.2 cells; experiment: Internalization by fluorescence microscopy after acid wash, mock transfected cells; format: cell-based; settings: 25 nM Alexa fluor 647 conjugate, negative control cells
Description: (§5) First, Alexa fluor 647-conjugates of the VHH 13F11 and the biparatopic VHH construct […] were added to A549 cells that endogenously express hIGF2R (FIG. 16A), NIH 3T3 2.2 cells that were transiently transfected with hIGF2R (FIG. 16B), or mock transfected NIH 3T3 2.2 cells (as a negative control). For this, the cells were incubated with 25 nM of the VHH or the VHH construct. Before fluorescent microscopy readout, to ensure that only signal of internalized VHH or mouse anti-IGF2R was present, an acid wash (0.2M glycine-HCl, 150 mM NaCl, pH 2.3) was used to remove VHH or mouse anti-IGF2R bound to the target receptors on the cell surface. The efficiency of the acid wash procedure was verified by incubating the hIGF2R transfected NIH 3T3 2.2 cells with 13F11-13E8-A647 on ice and subsequently treating these cells with an acid wash while remaining on ice to prevent internalization (FIG. 16D). […] Summarizing, biparatopic 13F11-13E8 clearly internalizes in cells expressing hIGF2R on the cell surface.

[7] = test system: A549 cells that endogenously express hIGF2R; experiment: Internalization by fluorescence microscopy after acid wash, A549 cells; format: cell-based, human; settings: 25 nM Alexa fluor 647 conjugate
Description: as §5

[8] = test system: SCC cells expressing mIGF2R; experiment: Kinetic internalization assay on SCC cells expressing mIGF2R; format: cell-based, murine; settings: IRDye800 conjugates, FIG. 17C left panel
Description: (§6) The rate of internalization (endocytic rate constant, ke) of biparatopic constructs 13F11-13E8 and 13E8-13F11 was determined with a kinetic internalization assay on SCC-hIGF2R and SCC-rIGF2R cells. Briefly, 10 nM of IRD800CW conjugated 13F11-13E8 or 13E8-13F11 (conjugation method as described in example 10.2) was added to hIGF2R expressing SCC cells or rIGF2R expressing SCC cells and incubated at 37° C. for different time points up to 12 minutes. Internalization was then purposely halted by putting the cells on ice. Subsequently, cells were washed with cold PBS and the non-internalized VHH construct (bound fraction) was separated from the internalized construct (internalized fraction) using an acid-wash, as described above, after which the fluorescence of both fractions were measured. Both constructs internalize with similar endocytic rate constants in SCC-hIGF2R cells (ke around 1.5 min-1) and in SCC-rIGF2R cells (ke around 0.7 min-1) (FIGS. 17A and B, respectively).
(§7) Internalization of 13F11-13E8 and the corresponding monomeric VHHs 13F11 and 13E8 was assessed in a similar assay (FIG. 17A-C).

[9] = test system: NIH 3T3 2.2 cells that were transiently transfected with hIGF2R; experiment: Internalization by fluorescence microscopy after acid wash, hIGF2R-transfected NIH 3T3 2.2 cells; format: cell-based, human; settings: 25 nM Alexa fluor 647 conjugate
Description: as §5

SCC-hIGF2R cells = experiment: Kinetic internalization assay on SCC-hIGF2R cells; format: cell-based, human
Description: as §6, §7

[10] = test system: LX2 cells (an activated hepatic stellate cell line); experiment: Live imaging of internalization with pHrodo-red conjugates in LX2 cells; format: cell-based, human; settings: 50 nM pHrodo-red conjugate
Source text: Internalization of monovalent 13F11 and biparatopics 13F11-13E8 and 13E8-13F11 was finally assessed in LX2 cells (an activated hepatic stellate cell line). For live imaging of internalization, the pH dependent Phrodo probe was used (ThermoFisher Scientific). This pH dependent probe becomes more fluorescent at acidic pH. Endosomes and lysosomes have a pH maintained at 6.5 and 4.5, respectively, compared to cytoplasmic pH of 7.0, and thus internalization of a VHH-pHrodo construct can be visualized when it internalizes via the endosomal pathway. LX-2 cells were incubated at 37° C. for 2 hours with 50 nM of pHrodo-red conjugated 13F11, 13F11-13E8 and 13E8-13F11 (conjugation method as described in example 10.2). Images were taken at 5 min. intervals using a wide-field PEXScope microscope (Nikon) with a mCherry filter and 40× oil objective.

SCC-rIGF2R cells = experiment: Kinetic internalization assay on SCC-rIGF2R cells; format: cell-based, rat
Description: as §6, §7

[11] = 10 nM IRD800CW conjugate, 37° C., up to 12 minutes

T1 sequence (Q05030 32-1097): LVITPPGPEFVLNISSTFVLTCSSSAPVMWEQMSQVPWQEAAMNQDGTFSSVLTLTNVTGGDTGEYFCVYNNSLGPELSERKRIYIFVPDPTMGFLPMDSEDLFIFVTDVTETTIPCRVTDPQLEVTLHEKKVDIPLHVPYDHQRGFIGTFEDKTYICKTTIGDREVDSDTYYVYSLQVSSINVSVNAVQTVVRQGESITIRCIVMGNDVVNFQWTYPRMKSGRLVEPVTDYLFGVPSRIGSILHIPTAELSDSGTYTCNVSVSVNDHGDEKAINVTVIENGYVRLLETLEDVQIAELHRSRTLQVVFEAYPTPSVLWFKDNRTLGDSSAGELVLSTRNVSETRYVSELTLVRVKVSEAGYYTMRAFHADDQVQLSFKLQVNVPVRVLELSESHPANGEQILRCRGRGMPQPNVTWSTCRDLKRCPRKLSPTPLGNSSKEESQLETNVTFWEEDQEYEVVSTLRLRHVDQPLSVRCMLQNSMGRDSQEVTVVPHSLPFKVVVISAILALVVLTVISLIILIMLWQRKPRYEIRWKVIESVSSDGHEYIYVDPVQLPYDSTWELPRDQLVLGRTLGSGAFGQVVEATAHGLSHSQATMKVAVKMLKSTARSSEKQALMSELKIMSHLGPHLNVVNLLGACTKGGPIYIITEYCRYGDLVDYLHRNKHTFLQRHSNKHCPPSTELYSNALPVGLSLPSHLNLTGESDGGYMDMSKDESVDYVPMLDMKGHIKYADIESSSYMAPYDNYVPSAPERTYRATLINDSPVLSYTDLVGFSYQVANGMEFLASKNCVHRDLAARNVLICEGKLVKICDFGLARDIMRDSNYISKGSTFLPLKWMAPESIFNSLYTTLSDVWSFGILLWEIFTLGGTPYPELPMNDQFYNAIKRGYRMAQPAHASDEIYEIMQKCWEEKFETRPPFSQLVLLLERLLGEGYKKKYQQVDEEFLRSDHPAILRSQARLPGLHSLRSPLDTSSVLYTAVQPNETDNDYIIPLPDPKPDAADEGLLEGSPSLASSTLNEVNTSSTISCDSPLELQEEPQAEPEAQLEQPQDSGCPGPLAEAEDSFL

B1: SP26P-SP28P: biparatopic construct based on VHH raised against rPDGFRB (protein)
chain: EVQLVESGGGLVQAGGSLRLSCAASGSIVSFNGINWYRQAPGKQREWVGGITQGGNTMYADSVRGRFTISRDNTKNTMYLQMNSLKPEDTAVYYCRRPPVASWGQGTQVTVSSGGGGSGGGGSGGGGSEVQLVESGGGLVQAGGSLRLSCAASGRSFSSSVMGWFRQTPGKEREFVAATRWTAASTHYADSVKGRFTISRDHAENAVFLQMNSLKPEDTAVYYCAAGNYLDTAQYRYNYWGQGTQVTVSS
modifications: left off: small tags and cut ends
notes: biparatopic construct based on VHH raised against rPDGFRB
- affinity for rPDGFRB on cells [1]: high affinity
- affinity for hPDGFRB (hPDGFRB-ECD): lowest affinity
- affinity for hPDGFRB on cells [2]: low affinity

B2: 13F11-13E8-ABD: 13F11-13E8 re-engineered to include an albumin binding domain (ABD) as half-life extender (protein)
chain: EVQLVESGGRLVQPGDSLRLSCAASGRTFSDNAMGWFRQAPGKERRFVAGISWAGGSTYYSDSVKGRFTISRDNAKNTVYLQMNSLKPEDTAVYYCAAGLRAWVQRMPKDYNYWGQGTQVTVSSGGGGSGGGGSGGGGSEVQLVESGGGLVQAGGSLRLSCAASRSISPMGWYRQAPGKQRELVAIMPSSGPPIYADSVQGRFTISRDNAKNTVYLQMNSLKPEDTAVYYCNVGGGYWGQGTQVTVSS
modifications: left off: large carriers; small tags and cut ends
- infused dose still in circulation ([3]; one hour after dosing, approximately 20 nmoles infused, estimated serum volume 10 mL): approximately 50%
- Cmax ([3]; rats, i.v., approximately 3 mg/kg, read-out: peak serum level (Cmax)): > 1000 nM
- biodistribution (PET) [4]: accumulate in the liver
- binding to activated HSCs [5]: evident

B3: 13F11-13E8: biparatopic IGF2R VHH construct, 13F11 and 13E8 fused with (Gly-Gly-Gly-Gly-Ser)3 linker, C-terminal cysteine (protein)
chain: EVQLVESGGRLVQPGDSLRLSCAASGRTFSDNAMGWFRQAPGKERRFVAGISWAGGSTYYSDSVKGRFTISRDNAKNTVYLQMNSLKPEDTAVYYCAAGLRAWVQRMPKDYNYWGQGTQVTVSSGGGGSGGGGSGGGGSEVQLVESGGGLVQAGGSLRLSCAASRSISPMGWYRQAPGKQRELVAIMPSSGPPIYADSVQGRFTISRDNAKNTVYLQMNSLKPEDTAVYYCNVGGGYWGQGTQVTVSS
modifications: left off: small tags and cut ends
notes: biparatopic IGF2R VHH construct, 13F11 and 13E8 fused with (Gly-Gly-Gly-Gly-Ser)3 linker, C-terminal cysteine
- internalization [6]: no internalization was observed
- internalization [7]: clearly internalized
- internalization compared to the monomeric VHHs [8]: superior internalization
- internalization [9]: superior internalization
- clearance from circulation / detectability in serum ([3]; rats, i.v., approximately 3 mg/kg, ELISA LOD approximately 20 nM): could not be detected anymore within two hours after injection
- biodistribution (PET) [4]: swiftly accumulated in the kidneys
- endocytic rate constant, ke (SCC-hIGF2R cells; [11]): around 1.5 min-1
- internalization compared to the monomeric VHHs (SCC-hIGF2R cells; IRDye800 conjugates, FIG. 17C right panel): superior internalization
- intracellular localisation of internalized construct [10]: accumulate into perinuclear compartments (endosomes/lysosomes)
- increase in intracellular fluorescence (internalization) ([10]; 37° C., compared to monovalent 13F11 / between biparatopics): higher rate of internalization
- endocytic rate constant, ke (SCC-rIGF2R cells; [11]): around 0.7 min-1
- internalization compared to the monomeric VHHs (SCC-rIGF2R cells; IRDye800 conjugates, FIG. 17C middle panel): superior internalization
